Reference: article PMC4595793, “Beauveria bassiana Lipase A expressed in Komagataella (Pichia) pastoris with potential for biodiesel catalysis” (Frontiers in Microbiology, 2015)

Substrate: CCCC(=O)Oc1ccc([N+](=O)[O-])cc1
Test: spectrophotometric p-nitrophenol release
Format: biochemical, Beauveria bassiana
Details: 25 mM phosphate buffer pH 6.0, 50°C, 2 min, free enzyme, 0.05% Triton X-100 in the general assay, Hill coefficient n printed 1.46
Text: spectrophotometric p-nitrophenol release on BbLA (Beauveria bassiana lipase A)

B1: BbLA (Beauveria bassiana lipase A) (Beauveria bassiana ARSEF 2860) (protein)
chain: LSADIDGAPLIHLDYATYRGSRVAGAGVDQFLGMRFAKPPLGDLRFRAPEEPFHEDQVQDATKLGALCVGTVDGSGVSPNDVFGEDCLFANLFKPANATTASKLPVWVFIQGGGYAHNSNGNYNGTQIVQQSGGNVVFVSFNYRVGVLGFLASEEVRKDGALNAGLLDQRLFLKWVQKYIGQFGGDPNHVVIHGDSAGGGSVSHHLTAYGGNDKENLFVGGIPESPFWPTQRKVDQMEFQYTRLLRDTKCDSLDCLRKLDVGALGNASQPSPFPEAHTEDPAPLWYWLPVIDGDLVQDNMYKQFLTGRFKRVPLLVGADTDEGTLFAVNASTETEVSSFLRANYPRLQEWQLDIVSTIYPKMKPLPKHAAYFPSAAAVYGDSTFVCAGNTMSDAISAFVGPDKLWNYRYNVADPEQVAEGFGVPHVSELGAIFGPDNIRGHEAKSLRTTNAPIVPVTMAYFTSFVRFLDPNTSRQPGSPLWQNWGAFVGEQGQRMRLETNNTAMETVPFDLVTKCALWKLLAESMDV
notes: 19-residue signal peptide removed (precursor 546 aa, 1,641 bp); alpha-factor secretion signal, C-terminal 6His (554 aa printed; b43 says N-terminal His); secreted by Komagataella pastoris GS115, N-glycosylated, about 78 kDa (60 kDa after EndoHf); Octyl-sepharose purified
Km: 0.5546 µM
